According to publication PMC10565809 (2022):

T1: GFRα1 (Homo sapiens, UniProt P56159)
T1 chain: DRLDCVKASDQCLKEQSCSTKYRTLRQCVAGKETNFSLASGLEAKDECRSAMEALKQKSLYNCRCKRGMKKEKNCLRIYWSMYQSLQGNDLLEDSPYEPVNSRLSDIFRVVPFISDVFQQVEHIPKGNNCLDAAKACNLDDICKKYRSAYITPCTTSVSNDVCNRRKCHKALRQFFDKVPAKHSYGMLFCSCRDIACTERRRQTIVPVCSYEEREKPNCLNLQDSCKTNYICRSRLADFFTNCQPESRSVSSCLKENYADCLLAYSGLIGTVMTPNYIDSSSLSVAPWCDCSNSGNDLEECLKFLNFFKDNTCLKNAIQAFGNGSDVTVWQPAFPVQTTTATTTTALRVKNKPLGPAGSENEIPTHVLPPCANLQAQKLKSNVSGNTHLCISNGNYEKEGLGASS


Experiments:
[1] = biological target: GFRα1 soluble form (Homo sapiens) (UniProt P56159); assay: SPR; conditions: cited from earlier work
[2] = biological target: T1, GFRα1; assay: MST

Kd [2] | Molecule | Kd [1]
– | GDNF (from UniProt P39905) | 0.63 nM
260 nM | GDNF (protein) KRSPDKQMAVLPRRERNRQAAAANPENSRGKGRRGQRGKNRGCVLTAIHLNVTDLGLGYETKEELIFRYCSGSCDAAETTYDKILKNLSRNRRLVSDKVGQACCRPIAFDDDLSFLDDNLVYHILRKHSAKRCGCI | –
